Results published in patent US20230110287A1 (SCOUT BIO, published 2023).

B1: felinized anti-NGF monoclonal antibody Fe1 (antibody, V domains shown)
VH: QVQLMESGADLVQPSESLRLTCVASGLSLTNNNVNWVRQAPGKGLEWMGGVWAGGATDYNSALKSRLTITRDTSKNTVFLQMHSLQSEDTATYYCARDGGYSSSTLYAMDAWGQGTTVTVSA
VL: DIEMTQSPLSLSATPGETVSISCRASEDIYNALAWYLQKPGRSPRLLIYNTDTLHTGVPDRFSGSGSGTDFTLKISRVQTEDVGVYFCQHYFHYPRTFGQGTKLELKR
notes: Expressed in CHO cells
B2: caninized anti-NGF monoclonal antibody SCB01 (antibody, V domains shown)
VH: EVTLQESGPGLVKPSQTLSLTCVVSGLSLTNNNVNWVRQRPGRGLEWMGGVWAGGATDYNSALKSRISITRDTAKNQVSLQLSSMTTEDTAVYYCARDGGYSSSTLYAMDAWGQGTLVTVSS
VL: EIVMTQSPASLSLSQEEKVTITCRASEDIYNALAWYQQKPGQAPKLLIYNTDTLHTGVPSRFSGSGSGTDYSFTISSLEPEDVAVYFCQHYFHYPRTFGAGTKVELK

What was measured:
[1] = target: NGF (added at 10 ng/mL to TF-1 cell cultures); assay: cell-based or functional assay
[2] = target: T1, mouse (murine) NGF (mouse, UniProt P01139 122-241, limits assumed); assay: ELISA on plate-coated murine NGF (0.1 ug/ml), detection with goat anti-feline IgG-HRP, Abs 450
T1 construct: also called muNGF; beta muNGF
Procedure: ELISA plates were coated with 0.1 μg/ml mouse (murine) NGF (muNGF) and blocked with PBS/0.05% Tween 20/1% BSA. muNGF-coated wells were then incubated for 1 hour at room temperature with antibody preparations, diluted in PBS/0.05% Tween 20/1% BSA (100 μl/well). Antibody concentrations ranging from 100 ng/ml to 1.56 ng/ml were used to establish a binding curve. After washing, the plates were incubated with a 1/5,000 dilution of goat anti-feline IgG-HRP in PBS/0.05% Tween 20/1% BSA. Plates were washed with PBS/0.05% Tween 20 and developed by the addition of TMB substrate. Development was stopped by the addition of 2M H₂SO₄, absorbance read at 450 nm and background values were subtracted from the absorbance readings.

[3] = target: T1, mouse (murine) NGF; assay: ELISA on murine NGF, Abs 450

T1 sequence (P01139 122-241 limits assumed): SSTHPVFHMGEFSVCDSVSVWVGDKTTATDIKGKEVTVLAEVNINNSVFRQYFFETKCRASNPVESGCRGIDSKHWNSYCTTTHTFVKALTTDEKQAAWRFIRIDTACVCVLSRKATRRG
Chain of NGF (added at 10 ng/mL to TF-1 cell cultures) (P01138 122-241): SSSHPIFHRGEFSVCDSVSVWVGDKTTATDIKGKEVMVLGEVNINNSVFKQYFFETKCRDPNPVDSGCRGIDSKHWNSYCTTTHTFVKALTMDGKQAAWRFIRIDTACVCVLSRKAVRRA

Binder | IC50 (read off the curve), NGF-driven TF-1 cell proliferation [1] | binding result [2] | binding result [3]
B1 | ~50 ng/mL | binds | 
B2 |  |  | binds
